Source: patent US7994133B2, “Isozyme-specific antagonists of protein kinase C” (The Board of Trustees of the Leland Stanford Junior …, priority 2003, dated 2011)

T1: GST-εRACK (Homo sapiens, UniProt P35606)
T1 construct: made in house; host or cells: Hi5 insect cells (baculovirus made in Sf9)
T1 sequence (P35606 2-906 limits assumed): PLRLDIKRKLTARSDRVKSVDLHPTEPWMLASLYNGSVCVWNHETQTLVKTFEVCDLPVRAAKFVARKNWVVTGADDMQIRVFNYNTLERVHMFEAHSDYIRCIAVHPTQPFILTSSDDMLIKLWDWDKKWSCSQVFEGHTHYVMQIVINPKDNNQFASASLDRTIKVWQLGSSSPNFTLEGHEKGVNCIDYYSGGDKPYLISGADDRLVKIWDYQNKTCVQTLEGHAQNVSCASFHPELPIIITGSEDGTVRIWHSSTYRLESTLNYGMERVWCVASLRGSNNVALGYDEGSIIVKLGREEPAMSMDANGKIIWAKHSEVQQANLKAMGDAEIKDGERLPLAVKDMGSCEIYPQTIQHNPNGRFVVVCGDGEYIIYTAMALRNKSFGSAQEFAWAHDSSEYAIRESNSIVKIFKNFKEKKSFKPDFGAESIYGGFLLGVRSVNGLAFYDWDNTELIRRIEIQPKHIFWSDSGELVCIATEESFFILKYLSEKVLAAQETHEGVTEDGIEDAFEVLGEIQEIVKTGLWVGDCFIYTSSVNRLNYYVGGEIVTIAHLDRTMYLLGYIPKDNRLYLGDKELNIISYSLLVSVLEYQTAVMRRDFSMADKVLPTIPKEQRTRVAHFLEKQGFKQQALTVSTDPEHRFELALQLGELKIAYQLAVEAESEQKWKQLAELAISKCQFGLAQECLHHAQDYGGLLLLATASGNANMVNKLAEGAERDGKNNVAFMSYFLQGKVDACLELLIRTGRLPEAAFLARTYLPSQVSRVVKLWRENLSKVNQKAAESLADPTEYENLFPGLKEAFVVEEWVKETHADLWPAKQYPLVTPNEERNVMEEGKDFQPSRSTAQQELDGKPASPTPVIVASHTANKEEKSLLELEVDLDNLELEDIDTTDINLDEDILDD


Legend:
CHO cells = assay: Real-time confocal imaging of ATP-induced εPKC translocation; assay type: cell-based; settings: 1 mM ATP; for time after stimulation at which translocation was apparent: GFP fusion
Method: CHO cells were grown on glass coverslips, and serum-starved as described in Example 4. For each experiment, cells were transferred to a commercially available metal coverslip holder (Molecular Probes) in which the coverslip formed the bottom of a 1 ml bath. The media was then replaced with extracellular buffer (120 mM NaCl, 5 mM KCl, 1.5 mM CaCl2, 1.5 mM MgCl2, 20 mM HEPES and 30 mM glucose). Cells were stimulated by either PMA (100 nM), or with ATP (1 mM) in extracellular buffer. Fluorescence images of GFP-tagged constructs were obtained using the 488 nm excitation line of a laser scanning confocal microscope (Pascal, Zeiss) and emission was collected through a 505-550 nm band pass filter. Cells were imaged on the stage of an inverted microscope (Axiovert 100M) using a 40× Zeiss Plan-apo oil immersion objective with 1.2 numerical aperture (NA). For dual color imaging of CFP and YFP fusion proteins, a spinning disk Nipkow confocal microscope was used. Cells were viewed using an inverted Olympus IX70 microscope with a 40× oil immersion Olympus objective (1.35NA) and images were acquired with a CCD camera (Hamamatsu) and 2×2 pixel binning. CFP was excited with the 442 nm laser line of a helium-cadmium laser (Kimmon) whereas YFP was imaged with the 514 nm line of an argon ion laser (Melles-Griot). To selectively photobleach YFP labeled proteins in local regions of the cytoplasm for FRAP experiments, the 514 nm line of an Enterprise laser (Coherent) at maximal power (˜400 mW) was used. For these experiments, a 60× oil immersion objective was used (1.4NA). Under these conditions, and by placing an iris in the beam path, it was possible to bleach 80% of the YFP fluorescence in 500 ms in an area of the cytosol measuring approximately 35 um2. Real time confocal images were acquired every 10-15 seconds for 20 minutes for experiments utilizing PMA, and every 5 seconds for a total duration of 3 minutes in the case of cells stimulated with ATP. Reagents were added to the cell chamber after the fifth image in each time series. […] All images were acquired at room temperature. Images were exported as 12 or 16 bit files and changes in fluorescence intensity were measured using MetaMorph® data analysis software (Universal Imaging Corp.). To monitor the translocation of PKC, a small region of interest was selected in the cytosol of each cell and fluorescence intensity values graphed against time after subtraction of background values and normalized so that the initial fluorescence was 100%. Averages of 10-15 cells from three independent experiments were used. To determine statistical significance, a 1 tail type 2 T-test (Microsoft excel) was used.
It was next determined whether differences in translocation rates of the different εPKCs were also observed when translocation was stimulated via receptor signaling rather than by PMA. ATP has been previously used to activate PKC in CHO cells by stimulating purinergic G protein-coupled receptors [Maasch, C. et al., FASEB J. 14:1653-1663 (2000)]. All methods for this Example were performed as described, for example, in Examples 4, 6 and 7.

GST-εRACK = target: T1, GST-εRACK; assay: εRACK binding assay; settings: for change of binding to εRACK in the presence of PL: with versus without phosphatidylserine and Sn-1,2 dioleoylglycerol
Method: RACKs bind active PKC [Mochly-Rosen, D. & Gordon, A. S., FASEB J. 12:35-42 (1998); Mochly-Rosen, D. et al., Molec. Biol. Cell. (formerly Cell Regulation) 1:693-706 (1990).
Insect cells expressing either εPKC or GST-εRACK were lysed as described in Example 4. GST-εRACK, […] was immobilized on Glutathion-Sepharose 4B beads (Amersham-Pharmacia), and washed thoroughly with wash buffer (20 mM Tris-HCl pH 7.5, 2 mM EDTA, 100 mM NaCl, 12 mM βME, and 0.1% TritonX-100). Immobilized GST-εRACK was then incubated with the soluble fraction of insect cell lysates containing 100 ng Wt, D(86)A, or D(86)N εPKC protein, in the presence or absence of phospholipid activators (PL) (phosphatidylserine 12 μg/reaction and, Sn-1,2 dioleoylglycerol 400 ng/reaction) for 1 hour at 4° C. Upon thorough washing with wash buffer, bound proteins were eluted in SDS-PAGE sample buffer and proteins separated on 8% SDS-PAGE gels. The amount of εPKC interacting with εRACK was determined by Western blot probing for εPKC with anti εPKC-V5 antibodies. Blots were then re-probed with ant-GST (Santa Cruz) to verify that the same amount of GST-εRACK was present in each binding assay. All other methods for this Example were performed as described, for example, in Example 4.

| binding to εRACK relative to D(86)N or Wt (GST-εRACK; absence of PL activators) | change of binding to εRACK in the presence of PL (GST-εRACK) | εRACK binding compared with D(86)A or Wt (GST-εRACK; presence of an equal concentration of PL) | Molecule | time after stimulation at which translocation was apparent (CHO cells) [s] | steady state level compared with D(86)A or Wt (CHO cells) | translocation rate in comparison to wild type (CHO cells) |
| --- | --- | --- | --- | --- | --- | --- |
| at least two fold greater | not increased |  | D(86)A: εPKC mutant wherein D at position 86 of ΨεRACK on εPKC is substituted with an A (protein) MVVFNGLLKIKICEAVSLKPTAWSLRHAVGPRPATFLLDPYIALNVDDSRIGQTATKQKTNSPAWHDEFVTDVCNGRKIELAVFHAAPIGYDDFVANCTIQFEELLQNGSRHFEDWIDLEPEGRVYVIIDLSGSSGEAPKDNEERVFRERMRPRKRQGAVRRRVHQVNGHKFMATYLRQPTYCSHCRDFIWGVIGKQGYQCQVCTCVVHKRCHELIITKCAGLKKQETPDQVGSQRFSVNMPHKFGIHNYKVPTFCDHCGSLLWGLLRQGLQCKVCKMNVHRRCETNVAPNCGVDARGIAKVLADLGVTPDKITNSGQRRKKLIAGAESPQPASGGSPSEEDRSKSAPTSPCDQEIKELENNIRKALSFDNRGEEHRAASSPDGQLMSPGENGEVRQGQAKRLGLDEFNFIKVLGKGSFGKVMLAELKGKDEVYAVKVLKKDVILQDDDVDCTMTEKRILALARKHPYLTQLYCCFQTKDRLFFVMEYVNGGDLMFQIQRSRKFDEPRSRFYAAEVTSALMFLHQHGVIYRDLKLDNILLDAEGHCKLADFGMCKEGILNGVTTTTFCGTPDYIAPEILQELEYGPSVDWWALGVLMYEMMAGQPPFEADNEDDLFESILHDDVLYPVWLSKEAVSILKAFMTKNPHKRLGCVASQNGEDAIKQHPFFKEIDWVLLEQKKIKPPFKPRIKTKRDVNNFDQDFTREEPVLTLVDEAIVKQINQEEFKGFSYFGEDLMP | 10 |  |  |
|  | significantly increased | less εRACK binding | D(86)N: εPKC mutant wherein D at position 86 of ΨεRACK in εPKC is substituted with an N (protein) MVVFNGLLKIKICEAVSLKPTAWSLRHAVGPRPATFLLDPYIALNVDDSRIGQTATKQKTNSPAWHDEFVTDVCNGRKIELAVFHNAPIGYDDFVANCTIQFEELLQNGSRHFEDWIDLEPEGRVYVIIDLSGSSGEAPKDNEERVFRERMRPRKRQGAVRRRVHQVNGHKFMATYLRQPTYCSHCRDFIWGVIGKQGYQCQVCTCVVHKRCHELIITKCAGLKKQETPDQVGSQRFSVNMPHKFGIHNYKVPTFCDHCGSLLWGLLRQGLQCKVCKMNVHRRCETNVAPNCGVDARGIAKVLADLGVTPDKITNSGQRRKKLIAGAESPQPASGGSPSEEDRSKSAPTSPCDQEIKELENNIRKALSFDNRGEEHRAASSPDGQLMSPGENGEVRQGQAKRLGLDEFNFIKVLGKGSFGKVMLAELKGKDEVYAVKVLKKDVILQDDDVDCTMTEKRILALARKHPYLTQLYCCFQTKDRLFFVMEYVNGGDLMFQIQRSRKFDEPRSRFYAAEVTSALMFLHQHGVIYRDLKLDNILLDAEGHCKLADFGMCKEGILNGVTTTTFCGTPDYIAPEILQELEYGPSVDWWALGVLMYEMMAGQPPFEADNEDDLFESILHDDVLYPVWLSKEAVSILKAFMTKNPHKRLGCVASQNGEDAIKQHPFFKEIDWVLLEQKKIKPPFKPRIKTKRDVNNFDQDFTREEPVLTLVDEAIVKQINQEEFKGFSYFGEDLMP | 40 | significantly higher levels | slower translocation rate |
|  | significantly increased |  | Wt: wild type εPKC, human construct (protein) MVVFNGLLKIKICEAVSLKPTAWSLRHAVGPRPATFLLDPYIALNVDDSRIGQTATKQKTNSPAWHDEFVTDVCNGRKIELAVFHDAPIGYDDFVANCTIQFEELLQNGSRHFEDWIDLEPEGRVYVIIDLSGSSGEAPKDNEERVFRERMRPRKRQGAVRRRVHQVNGHKFMATYLRQPTYCSHCRDFIWGVIGKQGYQCQVCTCVVHKRCHELIITKCAGLKKQETPDQVGSQRFSVNMPHKFGIHNYKVPTFCDHCGSLLWGLLRQGLQCKVCKMNVHRRCETNVAPNCGVDARGIAKVLADLGVTPDKITNSGQRRKKLIAGAESPQPASGGSPSEEDRSKSAPTSPCDQEIKELENNIRKALSFDNRGEEHRAASSPDGQLMSPGENGEVRQGQAKRLGLDEFNFIKVLGKGSFGKVMLAELKGKDEVYAVKVLKKDVILQDDDVDCTMTEKRILALARKHPYLTQLYCCFQTKDRLFFVMEYVNGGDLMFQIQRSRKFDEPRSRFYAAEVTSALMFLHQHGVIYRDLKLDNILLDAEGHCKLADFGMCKEGILNGVTTTTFCGTPDYIAPEILQELEYGPSVDWWALGVLMYEMMAGQPPFEADNEDDLFESILHDDVLYPVWLSKEAVSILKAFMTKNPHKRLGCVASQNGEDAIKQHPFFKEIDWVLLEQKKIKPPFKPRIKTKRDVNNFDQDFTREEPVLTLVDEAIVKQINQEEFKGFSYFGEDLMP | 10 |  |  |
